B1: ADI-46724 (antibody, V domains shown)
VH: QVQLQESGPGLVEPSGTLSLTCVVTGDSISSRSWWSWVRQPPGKGLEWIGEIYHSGTTTYSPSLKSRVIISLDKSENHFSLKMTSVTAADTAVYYCARVIRDLRDYYDGSGYGPDAFDIWGQGTTVTVSS
VL: QPVLTQPPSVSAAPGQKVTISCSGSSSNIGSNFVSWYQQFPGTAPKLLIYDDNKRPSGIPDRFSGSKSGTSATLGITGLQTGDEADYYCETWDSRLSVVFGGGTKLTVL
notes: full-length IgG; also called Antibody Number 133
B2: ADI-42817 (antibody, V domains shown)
VH: QVTLKESGPTLVKPTQTLTLTCTFSGFSLSTSGVGVGWTRQPPGKALEWLALIYWDDDKRYSPSLKSRLTITKDTSKNQVVLTMTKMDPVDTATYYCAHRHIAARLYRDDDVFDVWGQGTMVTVSS
VL: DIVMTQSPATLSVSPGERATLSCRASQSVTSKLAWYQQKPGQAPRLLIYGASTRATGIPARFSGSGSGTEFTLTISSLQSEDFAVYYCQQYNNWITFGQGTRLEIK
notes: full-length IgG
B3: ADI-42226 (antibody, V domains shown)
VH: EVQLLESGGGLVQPGGSLRLSCAASGFIFSDHYMDWVRQAPGKGLEWVGRIRNKPNSYTTDYAAYVKGRFSISRDDSKNSLFLQMNSLKTEDTAVYYCARVVNGLDVWGQGTTVTVSS
VL: SYELTQPPSVSVSPGQTARITCSGDALPKQYAYWYQQKPGQAPVLVIYKDTERPSGIPERFSGSSSGTTVTLTISGVQAEDEADYYCQSADSSVADSSVVFGGGTKLTVL
notes: full-length IgG
B4: ADI-42186 (antibody, V domains shown)
VH: QVQLQQSGPGLVKPSQTLSLTCAISGDSVSTNSAAWNWIRQSPSRGLEWLGRTYYRSKWYNDYALSVKSRITIKPDTSKNQFSLQLNSVTPEDTAVYYCAREGAGYYDSSGYYPLSYDAFDIWGRGTMVTVSS
VL: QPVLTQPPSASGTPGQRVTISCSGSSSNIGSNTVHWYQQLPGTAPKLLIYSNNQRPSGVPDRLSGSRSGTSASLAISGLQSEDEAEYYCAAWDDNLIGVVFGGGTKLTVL
notes: full-length IgG; also called Antibody Number 130
B5: ADI-48969 (antibody, V domains shown)
VH: QVTLKESGGALVKPAGSLTLSCAASGFTFGDYYMSWIRQAPGKGLEWISYISSSGSSIYYTDSVRGRFTISRDNARNSLYLQMNSLRVEDTAVYYCAREFSSRPFDLWGQGTLVTVSS
VL: QSVLTQPRSVSGSPGQSVTISCTGTSSDVGAYNFVSWYQQYPGKAPKLMIYDVNKRPSGVPDRFSGSKSGNTASLTISGLQAEDEADYHCCSYAGTYTSNYVFGSGTKVTVL
notes: full-length IgG; also called Antibody Number 12
B6: ADI-42810 (antibody, V domains shown)
VH: QVQLVESGAEEKKPGASVKVSCKASGYTFTSYAMHWVRQAPGQRLEWMGWINAGNGNTKYSQKFQGRVTITRDTSASTAYMELSSLRSEDTAVYYCARQWLGHFDYWGQGTLVTVSS
VL: QSALTQPASVSGSPGQSITISCTGTSSDVGGYNYVSWYQQHPGKAPKLMIYEVSNRPSGVSNRFSGSKSGNTASLTISGLQAEDEADYYCSSYTSSSTYVFGTGTKVTVL
notes: full-length IgG
B7: ADI-42206 (antibody, V domains shown)
VH: QVQLVQSGGGLVQPGGSLRLSCAASGFTFSDHYMDWVRQAPGKGLEWVGRIRNKVNSYTTEYAASVKGRFTISRDDSKNSLYLQMNSLKTEDTAVYYCGRDRGWLDIWGQGTMVTVSS
VL: QSVLTQPASVSGSPGQSITISCTGTSSDVGGYNYVSWYQQHPGKAPKLMIYDVTNRPSGVSNRFSGSRSGNTASLTISGLQAEDEADYYCSSYTRSSTRVFGGGTKLTVL
notes: full-length IgG; also called Antibody Number 132
B8: ADI-48951 (antibody, V domains shown)
VH: EVQLLESGPGLVKPSGTLSLTCAVSGASISSNNWWSWVRQSPGKGLEWIGEIFHSGTTNYNPSLKSRVTISVDKSKNQFSLKLNSVTAADTAVYYCARDVGVAAVITGSVRWGQGTLVTVSS
VL: DIVLTQSPDSLAVSLGERAAINCKSSQSVFFSSDNKNYLAWYQQKPGQPPKLLIYWASTRESGVPDRFSGSGSGTDFTLTISSLQAEDVAVYYCQQFYTTPSTFGQGTKVEIK
notes: full-length IgG; also called Antibody Number 138
B9: ADI-42217 (antibody, V domains shown)
VH: EVQLVESGGGVVQPGRSLRLSCADSGFTFSYSAIHWVRQAPGKGLEWVAVISYDGSNKYYADSVKGRFTISRDNSKNTLYLQMNSLRPEDTAVYYCARHSGGYSSKDKPTEYFQHWGQGTLVTVSS
VL: QSVLTQPPSVSGAPGQRVTISCTGSSSDIGAGYDVHWYQQLPGTAPKLLIYGNTNRPSGVPDRFSGSKSGTSASLAITGLQAEDEADYYCQSYDSSLSGVVFGGGTKLTVL
notes: full-length IgG
B10: ADI-48900 (antibody, V domains shown)
VH: EVQLQESGPGLVKPSGTLSLTCAVSGGSISSSDWWSWVRQPPGKGLEWIGEIYHSGSTSYNPSVKSRVSISVDKSKNQFSLQLSSVTAADTAIYYCARVNPPQYSSGWYSVYWGQGTLVTVSS
VL: QSVVTQPPSVSAAPGQKVTISCSGSSSNIGNNYVSWYQQLSETAPKLLIYDNNKRPSGIPNRFSGSKSGTSATLGITGLQTGDEADYYCGTWDNSLGAVVFGGGTKVTVL
notes: full-length IgG; also called Antibody Number 13
B11: ADI-42114 (antibody, V domains shown)
VH: EVQLLESGGGLVKPGGSLRLSCAASGFTFSSYSMNWVRQAPGKGLEWVSSISSSSSYIYYADSVKGRFTISRDNAKNSLYLQMNSLRAEDTAVYYCARDSWGPFDYWGQGTLVTVSS
VL: QSVLTQPPSVSAAPGQKVTISCSGSSSNIGNNYVSWYQQLPGTAPKLLIYDNNKRPSGIPDRFSGSKSGTSATLGITGLQTGDEADYYCGTWDSSLSAKVFGGGTKLTVL
notes: full-length IgG; also called Antibody Number 143
B12: ADI-50539 (antibody, V domains shown)
VH: EVQLVESGPGLVKPSGTLSLTCAVSGGSISSSNWWSWVRQPPGKGLEWIGEIYHSGSTNYNPSLKSRVTISVDKSKNQFSLKLSSVTAADTAVYYCARARWEDGNYYYGMDVWGQGTTVTVSS
VL: QPVLTQPPSVSAAPGQKVTISCSGSSSNIGNNYVSWYQQLPGTAPKLLIYDNNKRPSGIPDRFSGSKSGTSATLGITGLQTGDEADYYCGTWDSSLSAVVFGGGTKVTVL
notes: full-length IgG; also called Antibody Number 134
B13: ADI-48890 (antibody, V domains shown)
VH: EVQLVESGGGLVQPGGSLRLSCAASGFTFSDHYMDWVRQAPGKGLEWVGRARNRANSYTTEYAASVKGRFAASRDDSKNSLYLQMNSLKTEDTAVYYCARVRGSYWDYWGQGTLVTVSS
VL: QSALTQPPSASGSPGQSVTISCTGTSSDVGGYNYVSWYQQHPGKAPKLMIYEVSKRPSGVPDRFSGSKSGNTASLTVSGLQAEDEADYYCSSFAGSNNLYVFGTGTKVTVL
notes: full-length IgG
B14: ADI-46739 (antibody, V domains shown)
VH: EVQLVESGPGLVKPSGTLSLTCAVSGGSISSDNWWSWVRQAPGKGLEWIGEIYHTGSTSYNPSLKSRVTISLDKSKNHFSLKLNSLTAADTAVYYCAGKKWELLGFRFDPWGQGTLVTVSS
VL: NFMLTQPPSVSAAPGQKVTISCSGSNSNIGNNFVSWYQQLPGTAPKLLIYDNNERPSGIPDRFSGSKSVTSATLGITGLQTGDEADYYCGTWDNSLGMVVFGGGTKLTVL
notes: full-length IgG; also called Antibody Number 124
B15: ADI-50537 (antibody, V domains shown)
VH: QVQLVQSGSELKKPGASVKVSCKASGYTFTSYAMNWVRQAPGQGLEWMGWINTNTGNPTYAQGFTGRFVFSLDTSVSTAYLQISSLKAEDTAVYYCARGYCSSTSCYGGLYWFDPWGQGTLVTVSS
VL: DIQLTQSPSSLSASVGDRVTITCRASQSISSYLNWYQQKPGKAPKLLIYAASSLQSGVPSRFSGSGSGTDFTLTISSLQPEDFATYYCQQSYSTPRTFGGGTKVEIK
notes: full-length IgG; also called Antibody Number 139
B16: ADI-49037 (antibody, V domains shown)
VH: EVQLVESGGGVVQPGRSLRLSCAASGFTLSSYVMHWVRQAPGKGLEWVAVISSDGTNKYYADSVKGRFTISRDSSKNTLYLQMNSLRPEDSAVYYCARGQPDYWGQGTLVTVSS
VL: EIVLTQSPATLSLSPGERATLSCRASQSVSNYFAWYQQKPGQAPRLLIYGASNRATGVPARFSGSGSGTDFTLTISSLEPEDFAVYYCQQRSNWPYTFGQGTKVEIK
notes: full-length IgG
B17: ADI-50197 (antibody, V domains shown)
VH: EVQLVESGGGVVQPGRSLRLSCAASGFTFSSYGMHWVRQAPGKGPEWVAVISEDGNKDHYVDSVKGRFSIYRDNSKSTVFLRMTSLRAEDTAVYYCAKDLTPYFYDSGAFDHWGQGTLVTVSS
VL: QSVLTQPPSVSGAPGQRVTISCTGNSSNIGAGYEVHWYQQLPGTAPKLLIYGNNNRPSGVPDRFSGSKSGASGSLAVTGLRAEDEADYYCHSYDSNMSGSVFGGGTKVTVL
notes: full-length IgG; also called Antibody Number 120
B18: ADI-48950 (antibody, V domains shown)
VH: EVQLVESGGGVVQPGRSLRLSCAVSGFTFSTSPLHWVRQAPGKGLEWVAVSSFVATDKYYADSVKGRFTVSRDNSKNTLYLQMNSLRPEDTAVYYCARGFGELPGFDIWGQGTMVTVSS
VL: SYVLTQPPSASGSPGQSVTISCTGTSSDFGGYNYVSWYQQHPGKAPKLMVYEVAKRPSGVPDRFSGSKSGNTASLTVSGLQAEDEADYYCSSYAGSNNFVVFGGGTKLTVL
notes: full-length IgG; also called Antibody Number 142
B19: ADI-46737 (antibody, V domains shown)
VH: QVQLVQSGGGVVQPGRSLRLSCAASGFTFSSYAMHWVRQAPGKGLEWVAVISYDGSNKYYADSVKGRFTISRDNSKNTLYLQMNSLRAEDTAVYYCARDGAGDYIWGSYRHKGLHYYYGMDVWGQGTTVTVSS
VL: DIQLTQSPSSLSASVGDRVTITCRASQGIRNDLGWYQQKPGKAPKRLIYAASSLQSGVPSRFSGSGSGTEFTLTISSLQPEDFATYYCLQHNSYPLTFGGGTKVEIK
notes: full-length IgG; also called Antibody Number 140
B20: ADI-50218 (antibody, V domains shown)
VH: QVQLVQSGAEVKKPGASVKVSCKASGYTFTSYDINWVRQATGQGLEWMGWMNPNSGNTGYAQKFQGRVTMTRNTSISTAYMELSSLRSEDTAVYYCARGLNTVTNSDYWGQGTLVTVSS
VL: DIQLTQSPSSVSASVGDRVTITCRASQGISSWLAWYQQKPGKAPKLLIYAASSLQSGVPSRFSGSGSGTDFTLTISSLQPEDFATYYCQQANSFPWTFGQGTKVDIK
notes: full-length IgG; also called Antibody Number 128
B21: ADI-48894 (antibody, V domains shown)
VH: EVQLVESGGGLVQPGGSLRLSCAVSGFTFSDHYMDWVRQAPGKGLEWVGRSRNKVNSYITEYAASVKGRFSISRDDSKNSLYLQMNSLKIEDTAVYYCARVFGGPTDYWGQGTLVTVSS
VL: EIVLTQSPSSLSASVGDRVTITCRASQGISNYLAWYQQKPGKAPKLLIYAASTLQSGVPSRFSGSGSGTDFILTISSLQPEDVATYYCQKYYSAPLITFGPGTKVEIK
notes: full-length IgG
B22: ADI-49137 (antibody, V domains shown)
VH: EVQLVESGGGLVQPGGSLRLSCAASGFIFSDHYMAWVRQAPGKGLEWVGHVGNKANTYTTEYAASVKGRFTISRDDSKKSLYLQMNRLKSEDTAVYYCARVFSYYLDYWGQGTPVTVSS
VL: EIVLTQSPGTLALSPGERATLSCRASQSVSSYLAWYQQKPGQAPRLLIYDSSNRATGIPARFSGSGSGTDFTLTISSLEPEDFAVYYCQQPGNWPPAFTFGGGTKLEIK
notes: full-length IgG; also called Antibody Number 126
B23: ADI-49032 (antibody, V domains shown)
VH: EVQLVQSGGGLVQPGGSLRLSCVGSGLTLSSSAMSWVRQAPGKGLECVSGITGSGSDSSYAASVKGRFTISRDNSKNTVYLQMNSLRAEDTAVYYCAKDLTHRLGSIFGKLTFDAFDIWGPGTMVTVSS
VL: DIRLTQSPSTLSASVGDRVTITCRASQSISGWLAWYQQKPGKAPKLLIYKASILESGVPSRFSGSQSGTEFTLTISSLQPDDFATYYCQQYNNFWTFGQGTKLEIK
notes: full-length IgG; also called Antibody Number 119

The binders below were run against T1, recombinant YFV E protein (soluble E, sE; YFV Asibi strain) (Yellow fever virus, Asibi strain, UniProt Q6DV88 286-678) (assay: BLI monovalent (IgG on tip)).
T1 construct: also called YFV E antigen; YFV E monomer
T1 sequence (Q6DV88 286-678): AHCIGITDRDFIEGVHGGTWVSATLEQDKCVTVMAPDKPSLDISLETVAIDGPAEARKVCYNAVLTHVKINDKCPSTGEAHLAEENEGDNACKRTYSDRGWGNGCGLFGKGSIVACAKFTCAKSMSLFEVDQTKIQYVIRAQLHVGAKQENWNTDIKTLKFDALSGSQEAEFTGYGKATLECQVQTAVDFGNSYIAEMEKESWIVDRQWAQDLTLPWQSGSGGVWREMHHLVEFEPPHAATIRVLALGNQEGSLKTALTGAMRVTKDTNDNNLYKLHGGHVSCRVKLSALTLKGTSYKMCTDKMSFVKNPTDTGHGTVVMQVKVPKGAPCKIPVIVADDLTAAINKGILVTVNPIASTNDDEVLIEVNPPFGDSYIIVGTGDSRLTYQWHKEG
B1 gave a Kd of over 100 nM.
With B2 the Kd was 4.15 nM.
In the case of B3, the Kd is reported as 0.843 nM.
B4 was tested, and the Kd was 1.21 nM.
For B5, the Kd was 5.86 nM.
B6 showed a Kd of over 100 nM.
B7 was tested, and the Kd was 1.73 nM.
Work on B8 yielded a Kd of 2.67 nM.
B9 showed a Kd of 4 nM.
Binder B10 has a Kd of 26.2 nM.
B11 gave a Kd of over 100 nM.
B12 gave a Kd of over 100 nM.
In the case of B13, the Kd is reported as over 100 nM.
Binder B14 has a Kd of over 100 nM.
B15 was tested, and the Kd was over 100 nM.
B16 was tested, and the Kd was 3.53 nM.
With B17 the Kd was over 100 nM.
Binder B18 has a Kd of 1.53 nM.
Work on B19 yielded a Kd of over 100 nM.
Work on B20 yielded a Kd of over 100 nM.
For B21, the Kd was 95.6 nM.
Binder B22 has a Kd of 0.854 nM.
With B23 the Kd was 0.486 nM.

From patent US20240218054A1 (MABLOC, published 2024)
